Measurements from patent US20250000944A1, “USE OF RECOMBINANT CALRETICULIN IN HAIR GROWTH, HAIR BREEDING, HAIR PROTECTION OR ANTI-HAIR LOSS AND RELATED PRODUCT” (BEIJING YITUBAIHUI BIOTECH CO., LTD, priority 2021, published 2025).
Entries after “also recorded” stand apart in the source; their conditions may differ.

How the values were obtained:
[1] = tested on: testosterone, dihydrotestosterone, and estradiol; test: Second experiment: hormone content in serum and skin tissue by ELISA; format: in vivo, C57BL/6 male mice; conditions: compared with the model group
Protocol: Experimental animals: C57BL/6 male mice, 6-7 weeks old, weighing (20±2) g, were provided by Beijing Vital River Laboratory Animal Technology Co. Ltd., with the animal license number of SCXK (Beijing) 2021-0006. They were kept in a 12 h light/12 h dark environment, with free access to food and water. The mice were divided into normal control group (normal group, NC), model group (Model), experimental group C (rh-CRT-2, with a concentration of 0.35 mg/ml) including an injection group and an external application group, experimental group D (rh-CRT-3, with a concentration of 0.21 mg/ml) including an injection group and external application group, and positive control-minoxidil group (Minoxidil). The proteins were stored in a −70° C. refrigerator and diluted with physiological saline when used. There were 6 mice in each group.
Modeling and drug administration: First, the hair loss model was established. One day before the modeling, the hair in the center of the back of the experimental animal was removed with a skin preparation knife, and the prepared skin area was depilated with a depilatory cream. After 24 hours of depilation, the normal control group was given 75% ethanol, and other groups were injected with testosterone solution (5 mg/mL) prepared with 75% ethanol, 0.01 mL/mouse. Two hours later, the injection groups of experimental group C and experimental group D were injected on the back, 0.15 mL/mouse, once a day, for 17 consecutive days; the external application groups of experimental group C and experimental group D were applied on the back, 0.15 mL/mouse, once a day, for 17 consecutive days. The normal control group and the model group were externally applied with physiological saline, once a day, 0.15 mL/mouse, for 17 consecutive days. During the drug administration process, except for the normal control group, all other groups were injected with the modeling agent (testosterone), and administrated with drugs after 2 hours. […] After the experiment, the mouse skin was pathologically sectioned as follows: The skin pathological tissue was fixed in 4% paraformaldehyde, trimmed, dehydrated and transparent, and then embedded. The slices were cut with a thickness of 6 μm using a paraffin slicer, and further dewaxed, stained, dehydrated, transparent and sealed. The hair follicles in different areas were observed under an optical microscope, and the number of hair follicles was statistically analyzed.
Hormone content in serum and skin tissue: At the end of the experiment, blood was collected from the mice's orbits, kept at room temperature for 30 min, centrifuged at 5,000 r/min for 10 min, and the serum was removed. At the end of the experiment, skin tissue was collected and stored in a −80° C. refrigerator. During the experiment, the skin tissue was homogenized, and the changes in testosterone, dihydrotestosterone, and estradiol of the serum and skin tissue in each group were detected by enzyme-linked immunosorbent assay (ELISA).
Statistical analysis: All data were processed using SPSS 17.0 software. One-way ANOVA was used for comparisons among multiple groups. Data were expressed as mean±standard deviation (x±s). P<0.05 was considered statistically significant, and P>0.05 was not considered statistically significant.

[2] = tested on: AGA (androgenic alopecia) model mice; test: Third experiment: hair growth score in DHT-induced AGA model mice; format: in vivo, C57BL/6N male mice; conditions: Day 17, P<0.05
Protocol: C57BL/6N male mice, 6-7 weeks old, weighing (18-20) g, 50 mice, with the animal license number of SCXK (Beijing) 2021-0006, were kept in a 12 h light/12 h dark environment, with free access to food and water. Adaptive feeding was performed for about 1 week.
The hair in an area of about 2 cm×3 cm at the border of the spine was shaved using an electric shaver. The depilatory area was applied with 8% sodium sulfide solution. After 90±10 s, the depilatory area on the back was cleaned with cotton balls dipped in water, the residual sodium sulfide was washed away with a washing bottle, and then the mice were wiped dry. Because the hair follicle cycle of mice was in the resting phase at this time, the mouse skin was pink. Mice were randomly divided into groups using Excel software, 10 mice in each group, and the modeling was established after 24 h and the drug was administered for 17 consecutive days. The AGA model was established by injecting dihydrotestosterone into the experimental mice. Dihydrotestosterone (DHT) solution was injected subcutaneously at multiple points every day, 100 μL/mouse (5 mg/kg body weight), and then the drug was administered after 3 h of absorption. CRT-2 and CRT-1 protein solutions were applied externally. 100 μL of protein solution was applied, and 100 μl of minoxidil MNX was applied. The CRT and MNX combination group was first applied with CRT-2 protein solution and then MNX 2 hours later. The solvent formula comprised 50% ethanol, 20% propylene glycol, and 30% pure water.
Scoring was based on the coverage of hair growth: • 0 points: no hair growth, pink in the hair removal area; • 1 point: gray in the hair removal area, hair coverage area E<20%; • 2 points: black in the hair removal area, hair coverage area 20%<E<40%; • 3 points: black in the hair removal area with a little hair growth, hair coverage area 40%<E<60%; • 4 points: black in the hair removal area with some hair growth, hair coverage area 60%<E<80%; • 5 points: black in the hair removal area, hair coverage area 80%<E<100%.
The skin color changes of mice were observed before administration every day. The hair removal time of mice was designated as Day 0, the first day of administration was designated as Day 1, and so on. The hair growth of each mouse was recorded and analyzed on Day 7, Day 9, Day 11, Day 13, Day 15, and Day 17.

B1: CRT-2: fragment (1-349 aa) of recombinantly expressed CRT, amino acid sequence SEQ ID NO: 9 (protein)
chain: EPAVYFKEQFLDGDGWTSRWIESKHKSDFGKFVLSSGKFYGDEEKDKGLQTSQDARFYALSASFEPFSNKGQTLVVQFTVKHEQNIDCGGGYVKLFPNSLDQTDMHGDSEYNIMFGPDICGPGTKKVHVIFNYKGKNVLINKDIRCKDDEFTHLYTLIVRPDNTYEVKIDNSQVESGSLEDDWDFLPPKKIKDPDASKPEDWDERAKIDDPTDSKPEDWDKPEHIPDPDAKKPEDWDEEMDGEWEPPVIQNPEYKGEWKPRQIDNPDYKGTWIHPEIDNPEYSPDPSIYAYDNFGVLGLDLWQVKSGTIFDNFLITNDEAYAEEFGNETWGVTKAAEKQMKDKQDEEQR
serum dihydrotestosterone ([1]; injection group, P<0.01): decreased significantly
skin tissue dihydrotestosterone ([1]; injection group, P<0.01): decreased significantly
testosterone level in skin tissue ([1]; injection group, P<0.05): significantly decreased
testosterone level in the serum ([1]; injection group, P<0.05): significantly decreased
serum dihydrotestosterone ([1]; topical (external application) group, P<0.05): decreased significantly
hair growth score compared with the Model group ([2]; external application 100 μL, CRT 0.35 mg/ml, MNX 5 mg/ml): significantly increased
hair growth score compared with the CRT-1 group ([2]; external application): better than; also recorded: significantly increased
